Numbering of substitutions follows the chain as printed.

For the assay, the target named is Bim-BH3 peptide. In words: SPR; Biacore assay; who was immobilised and the conditions are not stated. Particulars: both partners purified.

B1: hMcl-1(171–327), wild type (domain or fragment, human, UniProt Q07820 171-327, looked up)
chain: EDELYRQSLEIISRYLREQATGAKDTKPMGRSGATSRKALETLRRVGDGVQRNHETAFQGMLRKLDIKNEDDVKSLSRVMIHVFSDGVTNWGRIVTLISFGAFVAKHLKTINQESCIEPLAESITDVLVRTKRDWLVKQRGWDGFVEFFHVEDLEGG
notes: also called myeloid cell leukemia-1
In general, Kd refers to the equilibrium constant for the complex coming apart. Lower therefore signals higher affinity. In turn, B1 gave a Kd of approximately 0.06 nM.

B2: hMcl-1(171–327) Cys 286 → Ser (domain or fragment, human, UniProt Q07820 171-327, looked up)
chain: B1 chain with C116S
notes: seven nonnative residues LHHHHHH at the C-terminus; The NMR samples were uniformly 13C,15N-labeled (or U-15N, 5% 13C); also called mutant; mutant Cys 286 → Ser
In turn, B2 returned a Kd of approximately 0.06 nM.

The record behind these values is paper PMC4008586 (PLoS ONE, 2014).
